From patent US20100092465A1, “TREATMENT OF GRAFT-VERSUS-HOST DISEASE” (priority 2006, published 2010) come the findings set out here.

This assay deals with T1, muIL-27 (Mus musculus, UniProt O35228+Q8K3I6).
T1 sequence (O35228 19-228): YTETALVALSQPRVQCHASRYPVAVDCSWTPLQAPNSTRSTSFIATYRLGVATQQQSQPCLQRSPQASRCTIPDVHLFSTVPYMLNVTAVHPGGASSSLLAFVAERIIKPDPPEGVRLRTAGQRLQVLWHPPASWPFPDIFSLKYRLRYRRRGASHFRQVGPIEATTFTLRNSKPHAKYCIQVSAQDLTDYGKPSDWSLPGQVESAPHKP
T1 sequence (Q8K3I6 29-234): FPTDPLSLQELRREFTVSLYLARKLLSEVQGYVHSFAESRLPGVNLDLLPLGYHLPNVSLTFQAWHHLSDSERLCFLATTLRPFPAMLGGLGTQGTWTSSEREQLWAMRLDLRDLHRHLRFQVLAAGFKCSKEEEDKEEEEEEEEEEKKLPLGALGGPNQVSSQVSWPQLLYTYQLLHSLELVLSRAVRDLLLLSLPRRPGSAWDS
Put plainly: Phospho-STAT3 neutralization assay, mouse spleens, muIL-27. It is filed as cell-based. The settings on record: ligand muIL-27 at EC90. The source says: Whole mouse spleens were harvested from C57 B1/6 mice and washed two times with 1×PBS before being plated out at 2×10^5 cells/well in assay media (RPMI 1640 plus 10% fetal bovine serum) in 96-well, round-bottom tissue culture plates. Total human PBMC (peripheral blood mononuclear cells) were thawed from a frozen vial collected from a leukapherisis donation and washed two times with 1×PBS before being plated out at 10^6 cells/well in assay media in 96-well, round-bottom tissue culture plates. […] Following pre-incubation, treatments were added to the plates containing the cells and incubated together at 37° C. for 15 minutes.
Following incubation, cells were washed with ice-cold wash buffer (BIO-PLEX Cell Lysis Kit, BIO-RAD Laboratories, Hercules, Calif.) and put on ice to stop the reaction according to manufacturer's instructions. […]
Capture beads (BIO-PLEX Phospho-Stat3 Assay, BIO-RAD Laboratories) were combined with 50 μL of 1:1 diluted lysates and added to a 96-well filter plate according to manufacture's instructions (BIO-PLEX Phosphoprotein Detection Kit, BIO-RAD Laboratories). […] After the final wash, beads were resuspended in 125 μL/well of bead suspension buffer, shaken for 30 seconds, and read on an array reader (BIO-PLEX, BIO-RAD Laboratories) according to the manufacture's instructions. Data were analyzed using analytical softward (BIO-PLEX MANAGER 3.0, BIO-RAD Laboratories). […]

The IC50 is the concentration at which inhibition is half-maximal. In the case of “human IL-27RA-Fc5: human IL27RA extracellular domain (amino acids 1 to 512 of SEQ ID NO:5) fused to Fc5, effector minus human gamma1 Fc; SEQ ID NO:3”, the IC50 came to 0.14 nM.
